Experimental findings from patent US20070048268A1 are described below.

For the test, the target named is human IL-21 receptor (human) (UniProt Q9HBE5). Description: cell-based or functional assay.

Turning to “human IL-21-saporin immunotoxin conjugate (from UniProt P20656 25-277)”, the 3H-thymidine incorporation of MOLT-13 cells, relative to IL-21 treated cells was 70%; the growth inhibition of IM-9 cells, Alamar Blue proliferation assay, maximal conjugate concentration (250 ng/ml) worked out at 79%; the growth inhibition of RAMOS cells, Alamar Blue proliferation assay, maximal conjugate concentration (250 ng/ml) was 65%; the growth of DEL cells, density relative to untreated cells was 25%. The substance also registered a growth of HuT-78 cells, density relative to untreated cells of 33%; a growth of HuT-102 cells, density relative to untreated cells of 20%; a growth of YT cells, density relative to untreated cells of 33%.
